Measurements: patent US20150218244A1

Target: IL-10 receptor (IL-10R) on freshly isolated primary blood monocytes (human) (UniProt Q13651)
Experiment: cell-based or functional assay

Chain of IL-10 receptor (IL-10R) on freshly isolated primary blood monocytes (human) (Q13651 22-578, chain 1 of 2): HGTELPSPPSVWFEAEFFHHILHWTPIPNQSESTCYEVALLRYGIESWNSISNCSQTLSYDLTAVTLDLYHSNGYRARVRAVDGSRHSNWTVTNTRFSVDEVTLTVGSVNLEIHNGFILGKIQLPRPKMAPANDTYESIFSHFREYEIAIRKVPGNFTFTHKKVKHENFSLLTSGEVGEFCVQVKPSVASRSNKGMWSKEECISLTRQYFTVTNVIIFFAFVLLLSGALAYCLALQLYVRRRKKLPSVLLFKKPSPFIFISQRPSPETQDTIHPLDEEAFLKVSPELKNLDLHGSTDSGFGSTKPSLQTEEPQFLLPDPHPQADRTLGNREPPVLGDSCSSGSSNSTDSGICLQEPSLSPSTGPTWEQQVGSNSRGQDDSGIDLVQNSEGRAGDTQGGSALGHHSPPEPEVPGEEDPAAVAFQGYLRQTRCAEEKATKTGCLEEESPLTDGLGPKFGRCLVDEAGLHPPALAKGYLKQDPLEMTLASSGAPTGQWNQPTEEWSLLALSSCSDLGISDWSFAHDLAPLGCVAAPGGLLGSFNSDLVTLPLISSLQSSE
Chain of IL-10 receptor (IL-10R) on freshly isolated primary blood monocytes (human) (Q08334 20-325, chain 2 of 2, further chain): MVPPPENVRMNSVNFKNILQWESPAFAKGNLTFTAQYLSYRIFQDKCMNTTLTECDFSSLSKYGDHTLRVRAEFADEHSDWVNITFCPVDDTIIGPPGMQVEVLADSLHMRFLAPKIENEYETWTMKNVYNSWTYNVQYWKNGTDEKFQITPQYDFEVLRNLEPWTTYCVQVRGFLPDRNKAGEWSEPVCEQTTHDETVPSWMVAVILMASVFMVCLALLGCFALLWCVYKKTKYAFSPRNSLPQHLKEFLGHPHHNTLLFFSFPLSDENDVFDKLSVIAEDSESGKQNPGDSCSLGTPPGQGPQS

EC50 [nM] pSTAT3 induction: 0.017 nM
EC50 [nM] pSTAT3 induction, Donor 1: 0.029 nM
EC50 [nM] pSTAT3 induction, Donor 2: 0.019 nM
EC50 [nM] pSTAT3 induction, Donor 3: 0.021 nM
Substance: recombinant wild type human IL-10 (from UniProt P22301 19-178) (ligand)
